Our source for the protein stability index values is the supplement of paper PMC10724198.

± gives the standard deviation of the averaged measurements.
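Also: PSI is a weighted mean of sequencing reads over stability bins, variants kept only with over 10 reads, mCherry proximal and sfGFP distal, peptide attached via GGGS linker.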

In this series the test system is Saccharomyces cerevisiae. The experiment in a line: protein stability index of tFT-peptide fusion (C-terminal peptide) (PSI (0-1 scale)); higher = more stable (slower turnover). The following applies: genetic background: wild type; temperature: 30 C. The protocol: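 Multiplexed protein stability (MPS) profiling in S. cerevisiae. Random 12-aa peptides (tFT-X12 library) are fused to the C-terminus of a sfGFP-mCherry tandem fluorescent timer, after mCherry and a GGGS linker. Cells are FACS-sorted into 8 mCherry/sfGFP bins and deep-sequenced. The protein stability index (PSI) is the read-weighted bin average, scaled from 0 (unstable) to 1 (stable). Only peptides with >10 reads are reported; cells were grown at 30 °C in SC-His with glucose.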
Take GDGGGCWSGVGW: the protein stability index came to 0.643 ± 0.1.
Next, GDGGGMVEGLSR: 0.66946 ± 0.00014; GDIQRSNNFTIG: 0.779 ± 0.05.
GDMKCVTRDSFI registered a protein stability index of 0.638 ± 0.054.
With GDMSIWRSNNIT, the protein stability index amounted to 0.6723 ± 0.00088.
The figure for GDRGIKAYGVRG is 0.65 ± 0.015.
The figure for GDRTIALFFFTI is 0.671 ± 0.024; for GDSESRTWCQNL it is 0.548 ± 0.02; for GDSKTKDEMYKI it is 0.6867 ± 0.0045.
As to GDTVLLCDLASC, the protein stability index is 0.687 ± 0.0092.
The figure for GDVLLLVGAGER is 0.706 ± 0.1; for GDYGRLINLVTR it is 0.6815 ± 0.0059.
GEAKAARNKRMI registered a protein stability index of 0.708 ± 0.024.
The figure for GEAREEEKKGRW is 0.631 ± 0.027; for GEERRGRCGEKQ it is 0.597 ± 0.087; for GEGGEGWGCFSF it is 0.677 ± 0.021.
Next, GEGKAGGESEEP: 0.62 ± 0.068; GEGRAAGEIGGV: 0.707 ± 0.033.
The figure for GEGRRYVVVTEG is 0.693 ± 0.035; for GEGVRGGEWGLD it is 0.717 ± 0.053; for GEKKKAILGKRK it is 0.62 ± 0.011.
For the sequence GEQLNWSREPWY, the protein stability index came to 0.735 ± 0.038.
The figure for GERKRQQRKREE is 0.707 ± 0.064; for GERLGEWGGGVG it is 0.669 ± 0.0093; for GESGGGAVGGGW it is 0.64 ± 0.039.
The figure for GEVRHCRVTVIA is 0.539 ± 0.036; for GFALVVGNLISF it is 0.636 ± 0.021; for GFATCSFPVCRV it is 0.661 ± 0.027.
Next, GFCSGGVFVEWV: 0.754 ± 0.065; GFGKRGKDQDTY: 0.595 ± 0.033; GFGSSSFLCFSR: 0.669 ± 0.042.
For GFHCRLRVSTFG, the protein stability index amounted to 0.585 ± 0.019.
Next, GFLCFRWACVRL: 0.487 ± 0.028; GFLWLLGGVLGV: 0.658 ± 0.082; GFRVRCSICGSA: 0.681 ± 0.073.
The figure for GFTVVGCSYVTT is 0.5572 ± 0.0023.
Next, GFYPGRSKGCLG: 0.73 ± 0.05.
In turn, GGAGLGVVLGWW had a protein stability index of 0.6833 ± 0.0062.
Consider GGAGSFVEKEID, for which the protein stability index is 0.69 ± 0.044.
As to GGALDQADGGRS, the protein stability index was 0.7269 ± 0.0014.
The figure for GGALFVCSSVGR is 0.681 ± 0.033.
Next, GGALLGGGAMGL: 0.643 ± 0.037; GGARGDEGGGSA: 0.761 ± 0.055; GGAWGHCSHEWS: 0.6882 ± 0.0052.
GGCAAGVGRLAV showed a protein stability index of 0.624 ± 0.075.
The figure for GGCCGRVWGSVE is 0.71 ± 0.054; for GGCEGIRAVGWV it is 0.716 ± 0.04.
The sequence GGCEWWSWGRGG returned a protein stability index of 0.729 ± 0.041.
Next, GGCGGGGGVVVR: 0.7029 ± 0.0021.
The figure for GGCNLLGRGPDF is 0.694 ± 0.024; for GGCQCFSFPWPP it is 0.712 ± 0.087.
GGEGRGAFWGGE: the protein stability index turned out to be 0.68361 ± 0.0002.
Next, GGEYVGGRGCGL: 0.682 ± 0.1.
Next, GGFASGLCGGVI: 0.728 ± 0.087.
The figure for GGFGVARVLYGL is 0.712 ± 0.035; for GGGAGGEAVRVW it is 0.655 ± 0.025.
In the case of GGGARFGLGGRM, the protein stability index came out at 0.675 ± 0.027.
Next, GGGGAGFRGGIE: 0.68 ± 0.0019; GGGGAGGRRGTQ: 0.654 ± 0.0077; GGGGCRVRGLGA: 0.684 ± 0.041.
The figure for GGGGEVRAWGLR is 0.71 ± 0.032.
The figure for GGGGGGGGCGVI is 0.77 ± 0.08.
Consider GGGGGGGGRARE, for which the protein stability index was found to be 0.707 ± 0.09.
The figure for GGGGGGGLGGAF is 0.717 ± 0.026.
The sequence GGGGGGGVGMMW returned a protein stability index of 0.738 ± 0.02.
The figure for GGGGGGRLEGGA is 0.66 ± 0.07; for GGGGGGVRVARW it is 0.687 ± 0.07.
Next, GGGGGGVSLGGR: 0.696 ± 0.072; GGGGGSRGVCLG: 0.656 ± 0.063; GGGGGVCGACVV: 0.685 ± 0.016.
Next, GGGGRGTAVVGV: 0.66 ± 0.048; GGGGRGVGAGGG: 0.652 ± 0.061; GGGGSAGAGGGG: 0.6221 ± 0.0061.
GGGIGWRAGEFG returned a protein stability index of 0.673 ± 0.0016.
The figure for GGGRGGGEWVGG is 0.651 ± 0.043.
Next, GGGRGRWGPEGE: 0.6902 ± 0.0043; GGGRGTGVEFGA: 0.7 ± 0.03; GGGRGVGCMGCR: 0.688 ± 0.015.
The sequence GGGRPDRPQRAI had a protein stability index of 0.741 ± 0.026.
The figure for GGGRRRVAGREL is 0.701 ± 0.048.
On to GGGRWGAGVKGV, for which the protein stability index is 0.645 ± 0.028.
Next, GGGRYCADDGGR: 0.763 ± 0.051; GGGSLWWDVGYG: 0.6649 ± 0.0016; GGGTLGQWCCDV: 0.6835 ± 0.0029.
As to GGGVGCRSRGAG, the protein stability index stood at 0.595 ± 0.025.
In turn, GGGVLLRGGSGP displayed a protein stability index of 0.716 ± 0.053.
The figure for GGGVWYFSWSFC is 0.595 ± 0.045.
The figure for GGGWGRAYSWWV is 0.705 ± 0.012; for GGGWSGRGVGDR it is 0.727 ± 0.078; for GGGYHLGSCDKL it is 0.624 ± 0.025.
In turn, GGHAAMGRRGRE showed a protein stability index of 0.73 ± 0.14.
Turning to GGIRGITSRQPP, the protein stability index was found to be 0.576 ± 0.019.
Consider GGIVGVSWLVRS, for which the protein stability index was 0.657 ± 0.03.
Take GGLEVDWVGCGV: the protein stability index was 0.701 ± 0.012.
The figure for GGLGSHWDCDGL is 0.734 ± 0.093.
The figure for GGLGVYQWVDSV is 0.663 ± 0.02; for GGLIWRHGVGRG it is 0.692 ± 0.018.
The figure for GGLRPLFLCCLF is 0.569 ± 0.05.
As for GGLSGSRCTLFW, the protein stability index worked out at 0.7342 ± 0.0069.
The figure for GGLVWEESAGVR is 0.7091 ± 0.0016.
Consider GGNMPNNCWSRI, for which the protein stability index was 0.698 ± 0.022.
Next, GGNSRASAVKGA: 0.702 ± 0.1; GGNTQTNYHGCL: 0.73227 ± 0.00035.
As for GGPAWGRGGMYW, the protein stability index was 0.678 ± 0.034.
GGPGWGVSGWEG: the protein stability index amounted to 0.705 ± 0.015.
Next, GGRAWRWVARVG: 0.673 ± 0.045.
The figure for GGRCAERSDWCG is 0.647 ± 0.016; for GGRCGSVGRGGA it is 0.735 ± 0.065; for GGRFGLGGRLVG it is 0.658 ± 0.05.
GGRFPGGGGRRR gave a protein stability index of 0.583 ± 0.06.
Next, GGRGSAWRWRRG: 0.674 ± 0.014; GGRLLLLVGFRV: 0.583 ± 0.0066.
Next, GGRPVGRRRPGA: 0.671 ± 0.031; GGRQTAVSGLLL: 0.685 ± 0.017.
The figure for GGRSGVSGVVAG is 0.7021 ± 0.0049; for GGRVKPRGVGVG it is 0.648 ± 0.016.
